Test results taken from patent publication US20220396794, “[…] AGAINST TRANSFERRIN RECEPTOR (TfR)” (APTERNA LIMITED, published 2022).

Experiments:
[1] = target: T1, Transferrin receptor 1 (hTfR/hTFRC) extracellular domain (Homo sapiens, UniProt P02786 SEQ:89-760); assay: SPR; 30 mM Tris pH 7.5, 150 mM NaCl, 5 mM MgCl2; aptamer immobilised; settings: tags: N-terminal His6; expressed in HEK293; Sino Biological 11020-H07H; chain copies: 2 (inferred); label: biotin (SPR) or Cy3 (cells)
Description: (§1) Surface plasmon resonance-based biosensor assay. The Biacore T100 (GE Healthcare, Uppsala, Sweden) was used to monitor label-free interactions of truncated TR14-hTfR1 in real time. The biotinylated aptamer was coupled to a streptavidin-coated Biacore chip (SensorChip SA, BR-1003-98, General Electric Company) by an injection in binding buffer at a concentration of 25 μg/mL (30 mM Tris-HCl, pH 7.5; 150 mM NaCl; 5 mM MgCl₂) at 10 uL/min. The RNA was refolded by heating to 65° C., followed by cooling to 37° C., before immobilization. To measure binding kinetics, five concentrations of purified hTfR1 protein were injected at a flow rate of 10 uL/min. After binding, the surface was regenerated by injecting 50 mM NaOH at a flow rate of 15 μL/min for 20 s. Data from the control surface were subtracted. BIAevaluation software (GE Healthcare) was used for analysis. The binding data was fit to a 1:1 binding with a mass transfer model to calculate kinetics parameters as previously described (Hernandez et al, 2009; Soontornworajit et al, 2011)

[2] = target: T1, Transferrin receptor 1 (hTfR/hTFRC) …; assay: SPR; not measurable; settings: tags: N-terminal His6; expressed in HEK293; Sino Biological 11020-H07H; chain copies: 2 (inferred); label: biotin (SPR) or Cy3 (cells)
Description: as §1

T1 sequence (P02786 89-760): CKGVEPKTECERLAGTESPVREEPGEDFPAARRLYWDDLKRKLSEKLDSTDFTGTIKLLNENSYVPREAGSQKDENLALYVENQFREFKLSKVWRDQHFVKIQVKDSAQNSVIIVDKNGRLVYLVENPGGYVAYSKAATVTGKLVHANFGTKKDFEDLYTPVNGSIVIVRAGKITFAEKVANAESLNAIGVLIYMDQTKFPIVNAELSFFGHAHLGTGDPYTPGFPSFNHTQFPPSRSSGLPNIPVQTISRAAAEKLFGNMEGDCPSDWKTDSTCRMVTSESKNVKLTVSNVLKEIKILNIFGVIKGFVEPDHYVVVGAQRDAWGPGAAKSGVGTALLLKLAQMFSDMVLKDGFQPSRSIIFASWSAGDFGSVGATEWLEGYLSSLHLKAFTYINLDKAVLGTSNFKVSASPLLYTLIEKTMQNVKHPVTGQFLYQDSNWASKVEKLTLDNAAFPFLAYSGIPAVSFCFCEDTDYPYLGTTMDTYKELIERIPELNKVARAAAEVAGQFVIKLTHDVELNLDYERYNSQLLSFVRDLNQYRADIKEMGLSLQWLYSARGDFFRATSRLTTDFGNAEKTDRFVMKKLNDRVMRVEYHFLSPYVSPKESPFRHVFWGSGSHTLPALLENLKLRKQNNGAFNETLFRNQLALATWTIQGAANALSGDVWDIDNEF

| Binder | Kd [1] [nM] | binding result [2] |
| --- | --- | --- |
| UUUAUUCACAUUUUUGAAUUGA (ssRNA, 2'-F pyrimidines (rule of the parent selection)) [TR14 ST1-3 (22-nt)] | 0.022 | – |
| GGGGCUCAAUGCGUUCACGUUUAUUCACAUUUUUGAAUUGAGCAUG (ssRNA, 2'-F pyrimidines (rule of the parent selection)) [TR14 S1 (46-nt)] | 1.46 | – |
| AAUGCGUUCACGUUUAUUCACAUUUUUGAAUU (ssRNA, 2'-F pyrimidines (rule of the parent selection)) [TR14 ST1-2 (32-nt)] | – | no binding |
| GCUCAAUGCGUUCACGUUUAUUCACAUUUUUGAAUUGAGC (ssRNA, 2'-F pyrimidines (rule of the parent selection)) [TR14 ST1-1 (40-nt)] | – | no binding |
